Measurements published in paper PMC3741069 (Biochemistry, 2013).
Residue numbers refer to the chain shown, from its start. In names and notes the source's numbering stands.

B1: nitrate reductase (NarB) (Synechococcus elongatus PCC 7942 = FACHB-805; R160Q) (protein)
chain: MIDTAKTLCPYCGVGCGLEAVPPAQPGRATVRDREGTPIWQIRGDRQHPSSQGMVCVKGATVAESVSKSRLKYPMFRASLDDPFTEISWDEALDRLCDRIQQTQADYGKDGICFYGSGQFQTEDYYIAQKLVKGCLGTNNFDTNSQLCMSSAVSAYSLCLGSDGPPACYEDLDLADCLLIVGSNTAECHPILFNRYRKRHKQGGTNLIVVDPRCTPTAEVADLHLALKPGSDVALLNGLGWLLYQMGYVKKDFIANQTEGFEDWLAIIEDYPPQRTAELTGLAVAELVRAADLIASAQRWLSLWSMGVNQSIQGTAKATSLINLHLLTRQIGLPGCGPFSLTGQPNAMGGRETGGLAHLLPGYRKVIDPQHRADVETIWGLPMGSISPQPGRTAWQMIEGLEQGAVGFLWVAATNPAVSLPDVKRAQAALKRSPFTVLQDAYHPTETTTYAHLLLPAAQWSEKTGTMTNSERRVTLCQAFRQPPGEARADWQIFAEVGRRLGFAFDYTDAAAVFAEYVQVTAGRLCDLSGLSHELLAQAGPQQWPFPAGAEPTTESKRLYTKHHFAYADGRARFQPFHHLGVAEPPDDRYPLVLTVGRLYGHWHTQTRTGRIDKINKLHPSAFVEIHPRDADRYNISEGQAVVIRSRRGEGCFPAKVTTAISPGVLFVPMHWGALWGDRTEANALTHPAACPISGEPELKACAVQIEAASSTFTI
B2: nitrate reductase (NarB) (Synechococcus elongatus PCC 7942 = FACHB-805; K144Q) (protein)
chain: B1 chain with K130Q, Q146R
B3: nitrate reductase (NarB) (Synechococcus elongatus PCC 7942 = FACHB-805; K144R) (protein)
chain: B1 chain with K130R, Q146R
B4: nitrate reductase (NarB) (Synechococcus elongatus PCC 7942 = FACHB-805) (protein)
chain: B1 chain with Q146R

Substrate: O=[N+]([O-])O
Experiment: steady-state nitrate reductase assay, Michaelis-Menten fit
Assay type: biochemical, Synechococcus elongatus
Conditions: saturating reduced ferredoxin (Synechocystis sp. PCC 6803) as electron donor

Protein	Km
B1	2.5 ± 0.3 µM
B2	3.3 ± 0.5 µM
B3	5.7 ± 2.5 µM
B4	6.0 ± 1.0 µM
